B1: VH:VL chains; a variant is named by its letters at X, in order (parent)
chain 1: QVQLVQSGAEVKKPGASVKVSCKASGYTFTDYXMHWVRQAPGQGLEWMGXVNPNXXXTTYNQKFEGRVTMTTDTSTSTAYMELRSLRSDDTAVYYCARXNXLDXWGQGTTVTVSS
chain 2: DIQMTQSPSSLSASVGDRVTITCSVSSSVSSIYLHWYQQKPGKAPKLLIYSTSNLASGVPSRFSGSGSGTDFTLTISSLQPEDFATYYCQVYSGYPLTFGGGTKVEIK

The variants in the data set derive from B1. As to the kind of experiment: yeast display scFab, FACS + sequencing. In a few lines: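 The non-specific binding call was based on sorted and sequenced yeast displaying a heavy-chain CDR mutant scFab library. Labelling used anti-Myc with biotinylated ovalbumin (260 μg/mL in PBSB, 3 h, room temperature) or soluble membrane proteins (130 μg/mL, 20 min on ice), and FACS collected the top 25% and bottom 10% of binders in two replicates. Positive meant present in ≥3 of 4 pooled positive samples and in no negatives, and negative meant the converse.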
For the variant VKGGGFGA, the non-specific binding call was “binds”. In the case of VKGKSSWS it was “binds”; in that of VKERGDAV, “no binding”. In the case of YKGGSDVY it was “binds”. YKGGSFGV: the non-specific binding call is on record as “binds”.

Consider VKGKGDAV, for which the non-specific binding call is given as “no binding”. For VKERGAVA, the non-specific binding call is given as “no binding”. FKGRGALA: the non-specific binding call is listed as “binds”. Take FKGKGSGA: the non-specific binding call is reported as “binds”. The value for FKGRGAAD was “binds”; that for FKGRGAAS was “binds”; that for FKGRGAAV was “binds”. For FKGRGAAY, the non-specific binding call is “binds”. In the case of YKGRAAGS it was “binds”. The value for VKGRADSV was “no binding”. For the variant VKGRADSA, the non-specific binding call is on record as “no binding”. In the case of VKGRADSF it was “no binding”; in that of YKGKGALA, “binds”. The value for YKGKGALD was “binds”; that for SKERGDVV was “no binding”. Take SKERGDVD: the non-specific binding call is “no binding”. The value for SKERGDVA was “no binding”; that for YKGGDDLA was “no binding”. SKGKGAGD: the non-specific binding call was “binds”. For SKGKGAGF, the non-specific binding call was “binds”. In the case of YKGAGSAD it was “binds”. Consider AKGRADVY, for which the non-specific binding call is recorded as “no binding”. As to YKGGSSGV, the non-specific binding call is “binds”. Take YKGEGDGV: the non-specific binding call is “no binding”.

For the variant YKGGSSAD, the non-specific binding call is given as “binds”. In the case of YKGGSSAA it was “binds”; in that of YKGGGALD, “binds”. The value for VKGKGAWD was “binds”. In the case of VKGAGDLA it was “no binding”. For YKGKGVGV, the non-specific binding call is reported as “binds”. SKGKGSAA: the non-specific binding call is given as “binds”. In the case of DKGEGAGV it was “no binding”. The value for YKGAGAWA was “binds”. On to FKGEGAAD, for which the non-specific binding call is reported as “no binding”.

Consider FKGEGDVY, for which the non-specific binding call is “no binding”. Turning to FKGEGDVA, the non-specific binding call is on record as “no binding”. With YKGKGFAA, the non-specific binding call is given as “binds”.

With VKGKGDLA, the non-specific binding call is reported as “no binding”. For the variant YKGAGALD, the non-specific binding call is “binds”. The value for YKGKGSGA was “binds”; that for YKGKGSGS was “binds”; that for YKGKGSGF was “binds”. With VKGGSFGS, the non-specific binding call is on record as “binds”. Regarding VKGGGYGA, the non-specific binding call is “binds”. In the case of VKGRASSV it was “no binding”; in that of VKERGDGV, “no binding”; in that of SKGRADVY, “no binding”.

As for YKGEADGA, the non-specific binding call is given as “no binding”. The value for FKGKGVGD was “binds”; that for VKGRASGF was “no binding”; that for VKGRASGY was “no binding”. In the case of SKERGDAA, the non-specific binding call is listed as “no binding”. In the case of DKGGGDVA it was “no binding”. In the case of SKGASFAY, the non-specific binding call is recorded as “binds”. In the case of VKGASDGA it was “no binding”; in that of FKGRDSGS, “binds”. In the case of YKGGGSAV it was “binds”; in that of AKGEDSVF, “no binding”.

FKGKGAGD: the non-specific binding call was “binds”.

SKGENALY: the non-specific binding call is recorded as “no binding”. The value for VKGEGDVY was “no binding”; that for VKGRAFSV was “no binding”; that for DKGGSDVA was “no binding”. In the case of DKGGSDVV it was “no binding”. The value for YKGRAALY was “binds”; that for YKGGSAGY was “binds”. Consider YKGGSAGA, for which the non-specific binding call is “binds”. For the variant VKGASDWA, the non-specific binding call is on record as “no binding”. In the case of YKGEGYGV it was “binds”; in that of YKGAAFWA, “binds”.

Turning to YKGGSAAA, the non-specific binding call is “binds”. Regarding AKGRAAAS chain 1 D103N, the non-specific binding call is given as “binds”.

For the variant VKGGNVGV, the non-specific binding call is “binds”. In the case of SKGEGDWA it was “no binding”. The value for VKGRADVF was “no binding”; that for VKGRADVD was “no binding”; that for SKGKGSWD was “binds”. In the case of YKGRDAWD it was “binds”. Regarding VKEKGYLV, the non-specific binding call is given as “no binding”. In the case of DKERGDLV it was “no binding”; in that of FKGKGALD, “binds”; in that of VKGRASWS, “no binding”. In the case of YKGGSAWY, the non-specific binding call is “binds”. The value for VKGEGYGA was “binds”; that for YKGAASGV was “binds”; that for VKGEAAWD was “binds”.

Turning to YKGKGSLA, the non-specific binding call is reported as “binds”.

Consider YKGKGSLD, for which the non-specific binding call is “binds”. Turning to YKGKGSLY, the non-specific binding call is “binds”. For YKGKGSLF, the non-specific binding call is listed as “binds”. In the case of VKGAGAAS, the non-specific binding call is listed as “binds”. The value for DKGGAAGD was “no binding”; that for YKGKDSSV was “no binding”; that for VKGRASAF was “no binding”. In the case of VKGRASAS it was “no binding”. In the case of YKGAAFAD it was “binds”. YKGEGDVV: the non-specific binding call is on record as “no binding”. As for VKGKGSAA, the non-specific binding call is “binds”. In the case of YKGADFGD it was “binds”; in that of YKETGYAV, “binds”.

As to DKGGSAVV, the non-specific binding call is recorded as “no binding”.

VKGRADGS: the non-specific binding call is given as “no binding”. Consider VKGRADGV, for which the non-specific binding call is recorded as “no binding”. Take SKGKGAWY: the non-specific binding call is “binds”.

Consider VKGGAAVY, for which the non-specific binding call was “no binding”. As to FKGGGAVY, the non-specific binding call is “binds”. Regarding FKGGSSAA, the non-specific binding call is on record as “binds”.

With FKGGGFGA, the non-specific binding call is recorded as “binds”. On to VKEKGDSA, for which the non-specific binding call is “no binding”. In the case of SKERGDWY it was “no binding”; in that of SKERGDWV, “no binding”; in that of SKGRGALA, “binds”. Turning to SKGASAWA, the non-specific binding call is “binds”.

Consider YKGKDSVD, for which the non-specific binding call is “no binding”. The value for FKGEGFGS was “binds”.
